The supplement of paper PMC10126150
± gives the standard deviation of the averaged measurements.

Tested on: ATP
Assay: switch fluorescence ratio, 500 uM ATP over buffer (Cy3 cluster intensity, sum of 5 cycles each) (fold (ratio)); higher = stronger signal-on switching upon ATP binding; sequences stand for … in TCGTCGGCAGCGTCAGATGTGTATAAGAGACAGTTTTTTTTTTTTTTTTTTTTTTTTT…TC
Details: aptamer strand: ATP DNA aptamer (quencher-CACCTGGGGGAGTATTGCGGAGGAAGG + anchor), 100 nM annealed; ATP concentration: 500 uM
How it was run: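 After annealing to 100 nM quencher-labelled ATP aptamer, Cy3-labelled switching-strand clusters on a modified Illumina MiSeq flow-cell were imaged in selection buffer. A second image followed after 15 min with 500 uM ATP at 22 °C, and five such buffer/ATP cycles were done, each separated by NaOH stripping and re-annealing. The fluorescence ratio, averaged per switch-domain sequence, is summed target-cycle over summed buffer-cycle Cy3 intensity per cluster, with clusters outside 100-1000 RFU excluded.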
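Note: ATP exposure 15 min at 22 °C before imaging.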

Sequence	switch fluorescence ratio
AGCGGTGGTT	1.02 ± 0.012
AGCGGTTCAC	1.018 ± 0.0029
AGCGGTTGGG	0.9966 ± 0.0071
AGCGGTTTCG	0.986 ± 0.023
AGCGTACTTT	1.12 ± 0.018
AGCGTCAACG	0.954 ± 0.015
AGCGTCTGGG	1.0291 ± 0.00058
AGCGTGTGCG	0.989 ± 0.055
AGCTAGAGCT	0.963 ± 0.033
AGCTAGGAGC	0.972 ± 0.021
AGCTAGGCGC	1.01 ± 0.027
AGCTAGTTTA	0.998 ± 0.0036
AGCTATAAGG	0.982 ± 0.021
AGCTATCACG	1 ± 0.032
AGCTCTAAAT	1.04 ± 0.068
AGCTGACCGA	1.083 ± 0.0037
AGCTGAGGAG	1.0063 ± 7.3e-05
AGCTGATCTA	0.986 ± 0.022
AGCTGCCCCA	1.18 ± 0.13
AGCTGGAGGT	0.992 ± 0.026
AGCTGGGCCT	1.04 ± 0.011
AGCTGGGGTT	0.9962 ± 0.0062
AGCTGTACGG	1.029 ± 0.0084
AGCTGTTTAC	1.09 ± 0.016
AGCTTAGGGC	0.989 ± 0.03

Sequence	switch fluorescence ratio
AGCTTAGGGG	1.07 ± 0.11
AGCTTCGTCT	1.04 ± 0.065
AGCTTCTAAC	1.025 ± 0.0036
AGCTTGATTT	1.01 ± 0.039
AGCTTGGACC	1.009 ± 0.0084
AGCTTGGGGG	0.995 ± 0.027
AGCTTTTTGT	0.947 ± 0.023
AGGAAAAGGG	1.14 ± 0.1
AGGAAAATGT	0.984 ± 0.041
AGGAAAGTCT	1.02 ± 0.066
AGGAAATGTT	1 ± 0.051
AGGAAATTTT	1.01 ± 0.025
AGGAACGTAC	1.61 ± 0.057
AGGAACTTTT	1.42 ± 0.56
AGGAAGAGAG	1.016 ± 0.0083
AGGAAGATCC	1.002 ± 0.0083
AGGAAGGGGG	0.992 ± 0.034
AGGAAGTGCC	1.032 ± 0.0062
AGGAAGTGGT	0.9671 ± 0.006
AGGAAGTGTG	0.9869 ± 0.0079
AGGAATAAGT	1.11 ± 0.16
AGGAATCTAG	0.967 ± 0.03
AGGAATGGGA	1.02 ± 0.02
AGGAATGGTT	0.992 ± 0.041
AGGAATTTTC	0.994 ± 0.032

Sequence	switch fluorescence ratio
AGGACATTGG	0.966 ± 0.023
AGGACGAGCA	1.12 ± 0.015
AGGACGGGGA	0.99 ± 0.019
AGGACGTTTT	0.962 ± 0.01
AGGACTTGTG	0.972 ± 0.023
AGGACTTTGG	1.05 ± 0.056
AGGAGACAAG	0.948 ± 0.053
AGGAGATACT	1.09 ± 0.15
AGGAGATTTT	0.957 ± 0.032
AGGAGCTGCG	0.998 ± 0.038
AGGAGGACGG	1.01 ± 0.042
AGGAGGATCG	0.97 ± 0.079
AGGAGGCCAG	0.969 ± 0.05
AGGAGGCGTT	0.992 ± 0.029
AGGAGGGACT	1 ± 0.041
AGGAGGGAG	1.003 ± 0.0093
AGGAGGGGGA	1.03 ± 0.045
AGGAGGGGT	1.02 ± 0.07
AGGAGTATTT	1 ± 0.024
AGGAGTGGTG	0.994 ± 0.034
AGGAGTGTTT	1 ± 0.037
AGGAGTTTCG	1.01 ± 0.044
AGGATACCGC	1.12 ± 0.048
AGGATAGGGT	1.02 ± 0.05
AGGATCATGT	0.966 ± 0.042

Sequence	switch fluorescence ratio
AGGATGAAAT	0.992 ± 0.051
AGGATGGGCG	0.928 ± 0.039
AGGATTAACA	1.05 ± 0.013
AGGATTAGGG	1 ± 0.033
AGGATTATTG	0.991 ± 0.017
AGGATTGAAC	0.991 ± 0.018
AGGATTGGTG	0.999 ± 0.052
AGGATTTATA	0.991 ± 0.086
AGGCAAAGGG	0.995 ± 0.044
AGGCAACGGT	1.01 ± 0.012
AGGCAATATG	1.19 ± 0.018
AGGCAATTTG	1 ± 0.071
AGGCACCAAC	1.16 ± 0.044
AGGCACGACG	0.9561 ± 0.0074
AGGCACGGGG	0.9932 ± 0.0087
AGGCACTTTT	1.04 ± 0.015
AGGCCCACGG	1.006 ± 0.0067
AGGCCCGGAG	1.05 ± 0.045
AGGCCGAGGG	0.985 ± 0.012
AGGCCGATGG	0.983 ± 0.021
AGGCCGGTGC	1.04 ± 0.03
AGGCCGGTTT	1.017 ± 0.0061
AGGCCTCAGA	0.973 ± 0.015
AGGCCTCTGT	0.99 ± 0.011
AGGCGATATA	1 ± 0.024
